Measured values published in patent publication US20220204610A1, “PROTEIN BINDERS FOR IRHOM2” (NEW YORK SOCIETY FOR THE RELIEF OF THE RUPTURED AND …, priority 2019, published 2022).
Primed or numbered codes have the meaning given here. Where no end group is shown, it is not given here. Side-chain parts run from the residue outwards. [ ]: non-standard residue; d: D form. The star is where a group is joined. PEG(11) = undeca(ethylene glycol) spacer (11 ethylene glycol units) between biotin and maleimide; Biotin = O=C1N[C@H]2[C@H](CS[C@H]2CCCCC(=O)*)N1; PEG11′ = not defined here; Abu = CC[C@H](N)C(=O)O

T1: human iRhom2 (inactive rhomboid protein 2, isoform 1, NP_078875.4) (human, UniProt Q6PJF5 1-856)
T1 sequence: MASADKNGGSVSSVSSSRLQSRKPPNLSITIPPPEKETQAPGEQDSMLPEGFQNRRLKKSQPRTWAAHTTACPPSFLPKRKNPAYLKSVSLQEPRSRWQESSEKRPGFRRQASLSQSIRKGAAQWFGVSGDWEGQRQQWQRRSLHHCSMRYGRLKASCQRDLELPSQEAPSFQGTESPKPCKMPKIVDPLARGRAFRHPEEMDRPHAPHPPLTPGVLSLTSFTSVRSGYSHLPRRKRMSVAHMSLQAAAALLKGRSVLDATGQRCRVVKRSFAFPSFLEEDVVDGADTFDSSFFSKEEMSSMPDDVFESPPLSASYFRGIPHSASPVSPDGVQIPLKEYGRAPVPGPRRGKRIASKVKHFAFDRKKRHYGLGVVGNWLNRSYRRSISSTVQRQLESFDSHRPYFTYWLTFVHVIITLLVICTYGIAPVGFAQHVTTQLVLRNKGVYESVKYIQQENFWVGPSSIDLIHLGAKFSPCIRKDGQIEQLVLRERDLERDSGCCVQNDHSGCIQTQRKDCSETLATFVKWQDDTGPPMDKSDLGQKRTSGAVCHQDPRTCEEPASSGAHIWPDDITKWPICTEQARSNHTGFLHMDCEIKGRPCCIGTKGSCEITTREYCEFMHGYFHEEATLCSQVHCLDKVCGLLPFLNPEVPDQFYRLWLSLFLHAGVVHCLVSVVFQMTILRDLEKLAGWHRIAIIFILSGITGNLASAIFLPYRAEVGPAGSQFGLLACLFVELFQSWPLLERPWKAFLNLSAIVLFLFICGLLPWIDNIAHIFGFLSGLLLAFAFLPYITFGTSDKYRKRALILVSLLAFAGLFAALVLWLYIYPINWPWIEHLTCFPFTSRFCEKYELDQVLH

T2: peptide 11 (human iRhom2 C-terminus, AA819-856), biotinylated (human, oxidized to the cyclic disulfide; biotin-PEG(11)-maleimide on the added C-terminal cysteine)
T2 construct: also called immunization peptide 11
T2 peptide: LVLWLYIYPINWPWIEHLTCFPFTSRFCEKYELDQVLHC

T3: peptide 1b (human iRhom1 juxtamembrane domain of TMD1, AA433-449), biotinylated (human)
T3 peptide: SQHETVDSVLRNRGVYEC([maleimide-PEG(11)-Biotin])

T4: peptide 2b (human iRhom1 juxtamembrane domain of TMD1, AA428-449), biotinylated (human, biotin-PEG(11)-maleimide on the added C-terminal cysteine)
T4 peptide: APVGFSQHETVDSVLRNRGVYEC

T5: peptide 3b (human iRhom1 juxtamembrane domain of TMD1, AA433-461), biotinylated (human, biotin-PEG(11)-maleimide on the added C-terminal cysteine)
T5 peptide: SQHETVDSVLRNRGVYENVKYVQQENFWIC

T6: peptide 4b (human iRhom1 juxtamembrane domain of TMD1, AA428-461), biotinylated (human, biotin-PEG(11)-maleimide on the added C-terminal cysteine)
T6 peptide: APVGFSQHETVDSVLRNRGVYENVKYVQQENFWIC

T7: peptide 5 (human iRhom2 loop 1, AA474-498), biotinylated (human, X (position 4) = aminobutyrate in place of the internal cysteine; biotin-PEG(11)-maleimide on the added N-terminal cysteine)
T7 construct: also called immunization peptide 5
T7 peptide: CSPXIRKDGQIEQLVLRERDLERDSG

T8: peptide 6 (human iRhom2 loop 1, AA508-548), biotinylated (human, not fully specified; X (position 9) = aminobutyrate in place of the internal cysteine; biotin-PEG(11)-maleimide on the natural terminal cysteine)
T8 construct: also called immunization peptide 6
T8 peptide: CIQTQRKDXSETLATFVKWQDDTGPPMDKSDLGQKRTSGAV

T9: peptide 7 (human iRhom2 loop 1, AA578-600), biotinylated (human, X (position 16) = aminobutyrate in place of the internal cysteine; biotin-PEG(11)-maleimide on the natural terminal cysteine)
T9 construct: also called immunization peptide 7
T9 peptide: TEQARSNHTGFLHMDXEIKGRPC

T10: peptide 8 (human iRhom2 C-terminus, AA824-839), biotinylated (human)
T10 construct: also called immunization peptide 8
T10 peptide: YIYPINWPWIEHLT[Abu]FC([maleimide-PEG11′-Biotin])

T11: peptide 9 (human iRhom2 C-terminus, AA819-839), biotinylated (human, X (position 20) = aminobutyrate in place of the internal cysteine; biotin-PEG(11)-maleimide on the added C-terminal cysteine)
T11 construct: also called immunization peptide 9
T11 peptide: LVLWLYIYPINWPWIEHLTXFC

T12: peptide 10 (human iRhom2 C-terminus, AA824-856), biotinylated (human, oxidized to the cyclic disulfide; biotin-PEG(11)-maleimide on the added C-terminal cysteine)
T12 construct: also called immunization peptide 10
T12 peptide: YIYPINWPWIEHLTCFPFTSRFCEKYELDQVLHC

B1: antibody 4H8-E3 of the invention (antibody, V domains shown)
VH: EVQLQQSGPELVKPGASVKISCKASGYTFTDYYMNWVKQSHGKSLEWIGDINPNNGGTSYNQKFKGKATLTVDKSSNTAYMEFRSLTSEDSAVYYCARRGYYGVDYWGQGTTLTVSS
VL: NIVMTQSPKSMSMSVGERVTLNCKASENVGTYVSWYQQKPEQSPKLLIFGASNRYTGVPDRFIGSGFATDFTLTISSVQAEDLADYHCGQSYSYPYTFGGGTKLEIK
notes: Mouse monoclonal antibody purified from the supernatant of hybridoma sub-clone 4H8-E3; also called anti JMD1 antibody 4H8-E3; purified antibody 4H8-E3

Tests used:
[1] = system: LPS-induced release of endogenous TNFα from human THP-1 macrophage cells; test: ELISA-based TNFα release assay with purified antibody (Example 11); assay type: cell-based; settings: Homo sapiens; positive control at 10 μM final; THP-1 cells; LPS 50 ng/ml, 2 hours
Description: In the following study, ELISA-based TNFα release assays were performed to verify the inhibitory effects of the purified antibody 4H8-E3 of the invention on LPS-induced release of endogenous TNFα from human THP-1 macrophage cells.
In brief, on day 1, Nunc black MaxiSorp® 96-well plates (Thermo Fisher Scientific, USA) were coated overnight with 100 μl per well of mouse anti-human TNFα capture antibody (provided as part of the DuoSet ELISA kit) at 4 μg/ml TBS at 4° C. On day 2, the capture antibody solution was removed and MaxiSorp® plates were blocked with 300 μl per well of TBS, 1% BSA at room temperature for 3 hours. […] Using an infinite M1000 PRO (Tecan Group, Switzerland) microplate reader, the fluorescence of each well was collected at an excitation wavelength of 435 nm and an emission wavelength of 555 nm.

[2] = molecular target: T1, human iRhom2 (inactive rhomboid protein …); test: cell-based or functional assay
[3] = molecular target: T2, peptide 11 (human iRhom2 C-terminus, …); test: peptide binding ELISA, biotinylated peptide coated
[4] = molecular target: T3, peptide 1b (human iRhom1 juxtamembrane …); test: peptide binding ELISA, biotinylated peptide coated
[5] = molecular target: T4, peptide 2b (human iRhom1 juxtamembrane …); test: peptide binding ELISA, biotinylated peptide coated
[6] = molecular target: T5, peptide 3b (human iRhom1 juxtamembrane …); test: peptide binding ELISA, biotinylated peptide coated
[7] = molecular target: T6, peptide 4b (human iRhom1 juxtamembrane …); test: peptide binding ELISA, biotinylated peptide coated
[8] = molecular target: T7, peptide 5 (human iRhom2 loop 1, …); test: peptide binding ELISA, biotinylated peptide coated
[9] = molecular target: T8, peptide 6 (human iRhom2 loop 1, …); test: peptide binding ELISA, biotinylated peptide coated
[10] = molecular target: T9, peptide 7 (human iRhom2 loop 1, …); test: peptide binding ELISA, biotinylated peptide coated
[11] = molecular target: T10, peptide 8 (human iRhom2 C-terminus, …); test: peptide binding ELISA, biotinylated peptide coated
[12] = molecular target: T11, peptide 9 (human iRhom2 C-terminus, …); test: peptide binding ELISA, biotinylated peptide coated
[13] = molecular target: T12, peptide 10 (human iRhom2 C-terminus, …); test: peptide binding ELISA, biotinylated peptide coated

Molecule | inhibition at 10 µM [1] [%] | IC50 on LPS-induced release of endogenous TNFα from THP-1 cells [2] [nM] | binding result [3] | binding result [4] | binding result [5] | binding result [6] | binding result [7] | binding result [8] | binding result [9] | binding result [10] | binding result [11] | binding result [12] | binding result [13]
CNC(=O)[C@H](Cc1ccccc1)NC(=O)[C@H](CC(C)C)[C@H](CSc1cccs1)C(=O)NO [Batimastat, reference compound] | 92.5 |  |  |  |  |  |  |  |  |  |  |  | 
B1 |  | 6.48 | no binding (tested: 3 µg/ml) | no binding (tested: 3 µg/ml) | no binding (tested: 3 µg/ml) | no binding (tested: 3 µg/ml) | no binding (tested: 3 µg/ml) | no binding (tested: 3 µg/ml) | no binding (tested: 3 µg/ml) | no binding (tested: 3 µg/ml) | no binding (tested: 3 µg/ml) | no binding (tested: 3 µg/ml) | no binding (tested: 3 µg/ml)
